Data from PMC9604365 (2022).

T1: integrin αvβ3 (Homo sapiens, UniProt P06756)
T1 chain 1: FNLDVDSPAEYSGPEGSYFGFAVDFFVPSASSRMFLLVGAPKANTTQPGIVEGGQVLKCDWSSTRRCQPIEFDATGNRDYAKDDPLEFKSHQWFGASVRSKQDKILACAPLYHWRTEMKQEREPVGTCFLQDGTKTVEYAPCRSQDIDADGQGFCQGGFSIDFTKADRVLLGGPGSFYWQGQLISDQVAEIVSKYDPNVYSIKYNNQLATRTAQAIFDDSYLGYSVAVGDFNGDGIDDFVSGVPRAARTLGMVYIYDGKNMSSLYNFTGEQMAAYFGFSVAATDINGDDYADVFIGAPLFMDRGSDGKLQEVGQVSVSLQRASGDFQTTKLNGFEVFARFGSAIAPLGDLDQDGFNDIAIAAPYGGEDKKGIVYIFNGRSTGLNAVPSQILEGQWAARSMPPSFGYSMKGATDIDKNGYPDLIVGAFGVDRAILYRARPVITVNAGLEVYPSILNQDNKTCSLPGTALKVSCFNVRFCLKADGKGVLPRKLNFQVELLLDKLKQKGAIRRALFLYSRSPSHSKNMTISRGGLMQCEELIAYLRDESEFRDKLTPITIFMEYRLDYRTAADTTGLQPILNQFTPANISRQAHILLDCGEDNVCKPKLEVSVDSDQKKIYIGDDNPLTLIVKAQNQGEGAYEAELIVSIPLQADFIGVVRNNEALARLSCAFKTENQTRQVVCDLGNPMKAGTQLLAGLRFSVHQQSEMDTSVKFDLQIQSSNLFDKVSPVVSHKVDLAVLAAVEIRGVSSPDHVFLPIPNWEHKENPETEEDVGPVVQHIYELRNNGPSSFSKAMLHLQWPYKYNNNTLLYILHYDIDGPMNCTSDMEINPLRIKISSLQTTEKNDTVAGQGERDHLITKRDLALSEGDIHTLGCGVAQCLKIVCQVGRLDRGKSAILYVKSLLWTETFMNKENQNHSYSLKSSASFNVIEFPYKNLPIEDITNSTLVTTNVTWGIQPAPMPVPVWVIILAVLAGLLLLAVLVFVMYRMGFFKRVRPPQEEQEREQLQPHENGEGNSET
T1 chain 2: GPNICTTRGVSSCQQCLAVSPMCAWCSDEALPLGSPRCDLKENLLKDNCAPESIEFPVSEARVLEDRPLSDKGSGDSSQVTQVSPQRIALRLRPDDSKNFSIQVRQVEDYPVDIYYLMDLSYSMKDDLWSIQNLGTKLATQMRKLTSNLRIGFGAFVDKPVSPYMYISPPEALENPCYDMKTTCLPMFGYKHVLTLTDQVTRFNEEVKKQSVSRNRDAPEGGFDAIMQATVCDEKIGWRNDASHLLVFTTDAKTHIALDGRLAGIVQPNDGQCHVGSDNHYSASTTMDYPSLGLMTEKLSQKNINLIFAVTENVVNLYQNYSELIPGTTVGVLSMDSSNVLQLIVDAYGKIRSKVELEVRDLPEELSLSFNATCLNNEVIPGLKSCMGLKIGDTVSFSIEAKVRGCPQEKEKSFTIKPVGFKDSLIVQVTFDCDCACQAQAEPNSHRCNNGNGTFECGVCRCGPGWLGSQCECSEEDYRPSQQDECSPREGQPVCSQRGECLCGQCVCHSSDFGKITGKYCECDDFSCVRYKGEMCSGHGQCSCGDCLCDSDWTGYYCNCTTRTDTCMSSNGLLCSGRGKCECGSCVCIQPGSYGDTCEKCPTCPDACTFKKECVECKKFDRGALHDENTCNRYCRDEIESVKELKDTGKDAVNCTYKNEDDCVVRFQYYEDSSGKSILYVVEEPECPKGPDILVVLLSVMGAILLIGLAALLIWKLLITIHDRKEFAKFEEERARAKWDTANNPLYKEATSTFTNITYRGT

T2: integrin αvβ5 (Homo sapiens, UniProt P06756)
T2 chain 1: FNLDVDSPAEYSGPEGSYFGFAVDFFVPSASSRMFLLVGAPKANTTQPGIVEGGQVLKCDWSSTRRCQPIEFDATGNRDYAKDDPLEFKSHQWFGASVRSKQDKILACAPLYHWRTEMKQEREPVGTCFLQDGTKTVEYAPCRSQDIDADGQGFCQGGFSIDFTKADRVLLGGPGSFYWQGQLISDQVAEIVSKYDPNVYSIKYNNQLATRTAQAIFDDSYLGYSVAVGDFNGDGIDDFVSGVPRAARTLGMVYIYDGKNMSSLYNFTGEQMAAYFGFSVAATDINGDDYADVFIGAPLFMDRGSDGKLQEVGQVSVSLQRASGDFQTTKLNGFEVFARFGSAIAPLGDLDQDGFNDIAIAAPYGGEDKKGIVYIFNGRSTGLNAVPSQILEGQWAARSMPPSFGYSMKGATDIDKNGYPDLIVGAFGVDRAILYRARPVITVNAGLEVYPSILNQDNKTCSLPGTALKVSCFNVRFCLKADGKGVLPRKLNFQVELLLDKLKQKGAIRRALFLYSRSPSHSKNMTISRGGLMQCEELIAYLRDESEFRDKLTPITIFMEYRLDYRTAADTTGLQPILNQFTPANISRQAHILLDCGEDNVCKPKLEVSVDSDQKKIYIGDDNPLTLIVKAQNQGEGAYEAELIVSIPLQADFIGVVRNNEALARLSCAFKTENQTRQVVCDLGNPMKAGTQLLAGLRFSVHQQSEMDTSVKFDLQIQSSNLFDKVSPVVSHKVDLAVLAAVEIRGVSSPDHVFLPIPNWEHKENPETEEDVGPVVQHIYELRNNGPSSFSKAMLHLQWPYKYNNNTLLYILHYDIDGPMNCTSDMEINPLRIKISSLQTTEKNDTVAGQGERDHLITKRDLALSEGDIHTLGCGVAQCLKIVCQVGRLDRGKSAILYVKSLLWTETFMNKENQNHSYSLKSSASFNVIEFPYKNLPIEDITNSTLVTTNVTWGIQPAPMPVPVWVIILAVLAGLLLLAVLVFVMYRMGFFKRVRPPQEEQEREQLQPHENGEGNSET
T2 chain 2: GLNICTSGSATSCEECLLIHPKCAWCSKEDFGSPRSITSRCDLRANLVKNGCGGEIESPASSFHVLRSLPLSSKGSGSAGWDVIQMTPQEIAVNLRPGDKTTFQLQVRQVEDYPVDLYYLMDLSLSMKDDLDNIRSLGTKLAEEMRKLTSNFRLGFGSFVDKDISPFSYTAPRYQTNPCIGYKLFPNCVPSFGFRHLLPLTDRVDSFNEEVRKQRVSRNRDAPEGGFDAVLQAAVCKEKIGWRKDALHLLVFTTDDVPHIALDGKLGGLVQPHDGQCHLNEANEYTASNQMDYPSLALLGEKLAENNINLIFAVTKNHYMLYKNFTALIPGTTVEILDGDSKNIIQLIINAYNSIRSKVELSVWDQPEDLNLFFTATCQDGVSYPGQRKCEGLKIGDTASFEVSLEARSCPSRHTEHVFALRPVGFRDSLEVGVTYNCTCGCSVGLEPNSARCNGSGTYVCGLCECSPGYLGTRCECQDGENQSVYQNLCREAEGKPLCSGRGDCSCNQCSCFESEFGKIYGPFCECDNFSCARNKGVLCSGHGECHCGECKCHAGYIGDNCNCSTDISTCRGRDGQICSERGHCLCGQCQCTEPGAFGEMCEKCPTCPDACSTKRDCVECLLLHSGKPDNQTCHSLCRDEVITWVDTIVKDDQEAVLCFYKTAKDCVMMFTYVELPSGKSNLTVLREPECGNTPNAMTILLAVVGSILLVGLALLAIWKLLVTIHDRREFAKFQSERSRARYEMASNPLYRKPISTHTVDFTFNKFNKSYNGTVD


Tests used:
Assay in all cases: ELISA
[1] = target: T1, integrin αvβ3
[2] = target: T2, integrin αvβ5
[3] = target: DR5 (Homo sapiens, UniProt O14763)

Kd [1]	Kd [2]	Kd [3]	Binder
1.89 nM	96.5 nM	1.66 nM	DR5-B-iRGD 114-281 (protein) VRERGPQRVAAHITGTRGRSNTLSSPNSKNEKALGRKINSWESSRSGHSFLSNLHLRNGELVIHEKGFYYIYSQTNFKFREEIKENTKNDKQMVQYIYKYTSYPDPILLMKSARNSCWSKDAEYGLYSIYQGGIFELKENDRIFVSVTNERLLDMHHEASFFGAFLVG
		1.46 nM	DR5-B 114-281 (protein) VRERGPQRVAAHITGTRGRSNTLSSPNSKNEKALGRKINSWESSRSGHSFLSNLHLRNGELVIHEKGFYYIYSQTNFKFREEIKENTKNDKQMVQYIYKYTSYPDPILLMKSARNSCWSKDAEYGLYSIYQGGIFELKENDRIFVSVTNERLLDMHHEASFFGAFLVG
